The values below come from paper PMC4748810, “Structural basis for the endoribonuclease activity of the type III-A CRISPR-associated protein Csm6” (RNA, 2016).

This series concerns the molecule itself. Put plainly: SEC; size-exclusion chromatography of purified proteins (Supplemental Fig. 3); the purification used Superdex 200 (26/600) in 20 mM HEPES 7.5, 500 mM KCl. Background: In gel filtration, larger molecules generally elute earlier.

Where a chain is given by its changes, count along the chain named. Numbers in names are those of the source.

B1: Thermus thermophilus Csm6 (enzyme, UniProt Q53W17 1-464, looked up)
chain: MEDLDALWERYREAVRAGGNPQALYQEMVWPALLALWREKPRVYPFPQAFAVSVHTLGTSPEATALAILGAGAERVYVLHTPESARFLPRLRQDTGKDLYPVEIGKSDVEAIYREVKRLLEKHPEVPVALDLTSGTKAMSAGLAAAGFFFQRFYPKVRVVYVDNEDYDPELRRPRAGTEKLRILPNPHEALAEVDALFAKELYGKGEFGQAAAYFRGMVGRTGNQAYALYALLAEMYRAWRALDFGEALKAGRKLLGQLSQNVWLNHPLNARREALEAQVALLEAVDRFLKARDFALKEGVYGLARTLLHLAQEAKEEAAVLAALYAYRALELLLQERLALLGRRAEAPGLSPEEAEALRKALAELLGVLPEEVRLPAKLGLLDLLAFLRLKGDEALGRLSLAELRGLAGALKGRNSALLVHGFDVPSPKAVEGIARLAQGLLQDLEARTALGPLSPEPVPLGF
notes: amplified from genomic DNA; Homodimer in the crystal and in solution; also called TtCsm6; TTHB152; not shown: His6, N-terminal, cleaved
Consider B1, for which the stoichiometry N – broadly, a count of units in the complex or per binding partner – was determined as 2.

B2: TtCsm6 with Asn416 substituted by alanine (enzyme, Thermus thermophilus, UniProt Q53W17 1-464, looked up)
chain: B1 chain with N416A
notes: also called N416A; not shown: His6, N-terminal, cleaved
As for B2, the “stoichiometry N” value was 2.

B3: TtCsm6 with Glu332 substituted by alanine (enzyme, Thermus thermophilus, UniProt Q53W17 1-464, looked up)
chain: B1 chain with E332A
notes: also called E332A; not shown: His6, N-terminal, cleaved
Turning to B3, the “stoichiometry N” value was 2.

B4: TtCsm6 with Arg415 substituted by alanine (enzyme, Thermus thermophilus, UniProt Q53W17 1-464, looked up)
chain: B1 chain with R415A
notes: also called R415A; not shown: His6, N-terminal, cleaved
Regarding B4, the “stoichiometry N” value was 2.

B5: TtCsm6 with His422 substituted by alanine (enzyme, Thermus thermophilus, UniProt Q53W17 1-464, looked up)
chain: B1 chain with H422A
notes: also called H422A; not shown: His6, N-terminal, cleaved
Regarding B5, the “stoichiometry N” value amounted to 2.
